Kd data for 27 molecules are collected here from article PMC10786891, “Massively parallel profiling of RNA-targeting CRISPR-Cas13d”.

B1: target 3 U2A,C16U (mixed)
RNA 1: CACCCGUGCAAAAUUGCAGGGGUCUAAAACGACCUGAAUAUUUCAGAUCAAA
RNA 2: GGGAAUGGAUCCACAUCUACGAAUUCGUUUUUGAUUUGAAAUAUUCAGGACUGCAGAUCGGAAGAGCACACGU
B2: target 3 insC 3' of 9,insA 3' of 6 (mixed)
RNA 1: CACCCGUGCAAAAUUGCAGGGGUCUAAAACGACCUGAAUAUUUCAGAUCAAA
RNA 2: GGGAAUGGAUCCACAUCUACGAAUUCGUUUUUGAUCUGAAAUACUUCAAGGUCUGCAGAUCGGAAGAGCACACGU
B3: target 3 insC 3' of 4,insA 3' of 2 (mixed)
RNA 1: CACCCGUGCAAAAUUGCAGGGGUCUAAAACGACCUGAAUAUUUCAGAUCAAA
RNA 2: GGGAAUGGAUCCACAUCUACGAAUUCGUUUUUGAUCUGAAAUAUUCAGCGUACUGCAGAUCGGAAGAGCACACGU
B4: target 3 insA 3' of 22,insU 3' of 19 (mixed)
RNA 1: CACCCGUGCAAAAUUGCAGGGGUCUAAAACGACCUGAAUAUUUCAGAUCAAA
RNA 2: GGGAAUGGAUCCACAUCUACGAAUUCGUUUAUUGUAUCUGAAAUAUUCAGGUCUGCAGAUCGGAAGAGCACACGU
B5: target 3 G3A,A18G (mixed)
RNA 1: CACCCGUGCAAAAUUGCAGGGGUCUAAAACGACCUGAAUAUUUCAGAUCAAA
RNA 2: GGGAAUGGAUCCACAUCUACGAAUUCGUUUUUGGUCUGAAAUAUUCAGAUCUGCAGAUCGGAAGAGCACACGU
B6: target 3 A11C,A18G (mixed)
RNA 1: CACCCGUGCAAAAUUGCAGGGGUCUAAAACGACCUGAAUAUUUCAGAUCAAA
RNA 2: GGGAAUGGAUCCACAUCUACGAAUUCGUUUUUGGUCUGAACUAUUCAGGUCUGCAGAUCGGAAGAGCACACGU
B7: target 3 insG 3' of 7,insU 3' of 4 (mixed)
RNA 1: CACCCGUGCAAAAUUGCAGGGGUCUAAAACGACCUGAAUAUUUCAGAUCAAA
RNA 2: GGGAAUGGAUCCACAUCUACGAAUUCGUUUUUGAUCUGAAAUAUUGCAGUGUCUGCAGAUCGGAAGAGCACACGU
B8: target 3 insU 3' of 9,insA 3' of 8 (mixed)
RNA 1: CACCCGUGCAAAAUUGCAGGGGUCUAAAACGACCUGAAUAUUUCAGAUCAAA
RNA 2: GGGAAUGGAUCCACAUCUACGAAUUCGUUUUUGAUCUGAAAUAUUAUCAGGUCUGCAGAUCGGAAGAGCACACGU
B9: target 3 C1A,U8G (mixed)
RNA 1: CACCCGUGCAAAAUUGCAGGGGUCUAAAACGACCUGAAUAUUUCAGAUCAAA
RNA 2: GGGAAUGGAUCCACAUCUACGAAUUCGUUUUUGAUCUGAAAUAGUCAGGUAUGCAGAUCGGAAGAGCACACGU
B10: target 3 U2A,A11G (mixed)
RNA 1: CACCCGUGCAAAAUUGCAGGGGUCUAAAACGACCUGAAUAUUUCAGAUCAAA
RNA 2: GGGAAUGGAUCCACAUCUACGAAUUCGUUUUUGAUCUGAAGUAUUCAGGACUGCAGAUCGGAAGAGCACACGU
B11: target 3 C6U,A11G (mixed)
RNA 1: CACCCGUGCAAAAUUGCAGGGGUCUAAAACGACCUGAAUAUUUCAGAUCAAA
RNA 2: GGGAAUGGAUCCACAUCUACGAAUUCGUUUUUGAUCUGAAGUAUUUAGGUCUGCAGAUCGGAAGAGCACACGU
B12: target 3 G3A,C6G (mixed)
RNA 1: CACCCGUGCAAAAUUGCAGGGGUCUAAAACGACCUGAAUAUUUCAGAUCAAA
RNA 2: GGGAAUGGAUCCACAUCUACGAAUUCGUUUUUGAUCUGAAAUAUUGAGAUCUGCAGAUCGGAAGAGCACACGU
B13: target 3 insA 3' of 22,insC 3' of 20 (mixed)
RNA 1: CACCCGUGCAAAAUUGCAGGGGUCUAAAACGACCUGAAUAUUUCAGAUCAAA
RNA 2: GGGAAUGGAUCCACAUCUACGAAUUCGUUUAUUCGAUCUGAAAUAUUCAGGUCUGCAGAUCGGAAGAGCACACGU
B14: target 3 C6U,A12U (mixed)
RNA 1: CACCCGUGCAAAAUUGCAGGGGUCUAAAACGACCUGAAUAUUUCAGAUCAAA
RNA 2: GGGAAUGGAUCCACAUCUACGAAUUCGUUUUUGAUCUGAUAUAUUUAGGUCUGCAGAUCGGAAGAGCACACGU
B15: target 3 insC 3' of 5,insC 3' of 5 (mixed)
RNA 1: CACCCGUGCAAAAUUGCAGGGGUCUAAAACGACCUGAAUAUUUCAGAUCAAA
RNA 2: GGGAAUGGAUCCACAUCUACGAAUUCGUUUUUGAUCUGAAAUAUUCACCGGUCUGCAGAUCGGAAGAGCACACGU
B16: target 3 insU 3' of 11,insG 3' of 6 (mixed)
RNA 1: CACCCGUGCAAAAUUGCAGGGGUCUAAAACGACCUGAAUAUUUCAGAUCAAA
RNA 2: GGGAAUGGAUCCACAUCUACGAAUUCGUUUUUGAUCUGAAAUUAUUCGAGGUCUGCAGAUCGGAAGAGCACACGU
B17: target 3 del1,del6 (mixed)
RNA 1: CACCCGUGCAAAAUUGCAGGGGUCUAAAACGACCUGAAUAUUUCAGAUCAAA
RNA 2: GGGAAUGGAUCCACAUCUACGAAUUCGUUUUUGAUCUGAAAUAUUAGGUUGCAGAUCGGAAGAGCACACGU
B18: target 3 insA 3' of 14,insA 3' of 2 (mixed)
RNA 1: CACCCGUGCAAAAUUGCAGGGGUCUAAAACGACCUGAAUAUUUCAGAUCAAA
RNA 2: GGGAAUGGAUCCACAUCUACGAAUUCGUUUUUGAUCUGAAAAUAUUCAGGUACUGCAGAUCGGAAGAGCACACGU
B19: target 3 A11G,A12G (mixed)
RNA 1: CACCCGUGCAAAAUUGCAGGGGUCUAAAACGACCUGAAUAUUUCAGAUCAAA
RNA 2: GGGAAUGGAUCCACAUCUACGAAUUCGUUUUUGAUCUGAGGUAUUCAGGUCUGCAGAUCGGAAGAGCACACGU
B20: target 3 G19U (mixed)
RNA 1: CACCCGUGCAAAAUUGCAGGGGUCUAAAACGACCUGAAUAUUUCAGAUCAAA
RNA 2: GGGAAUGGAUCCACAUCUACGAAUUCGUUUUUUAUCUGAAAUAUUCAGGUCUGCAGAUCGGAAGAGCACACGU
B21: target 3 U8C,U22A (mixed)
RNA 1: CACCCGUGCAAAAUUGCAGGGGUCUAAAACGACCUGAAUAUUUCAGAUCAAA
RNA 2: GGGAAUGGAUCCACAUCUACGAAUUCGUUAUUGAUCUGAAAUACUCAGGUCUGCAGAUCGGAAGAGCACACGU
B22: target 3 A5C,C6A (mixed)
RNA 1: CACCCGUGCAAAAUUGCAGGGGUCUAAAACGACCUGAAUAUUUCAGAUCAAA
RNA 2: GGGAAUGGAUCCACAUCUACGAAUUCGUUUUUGAUCUGAAAUAUUACGGUCUGCAGAUCGGAAGAGCACACGU
B23: target 3 insU 3' of 22,insG 3' of 2 (mixed)
RNA 1: CACCCGUGCAAAAUUGCAGGGGUCUAAAACGACCUGAAUAUUUCAGAUCAAA
RNA 2: GGGAAUGGAUCCACAUCUACGAAUUCGUUUUUUGAUCUGAAAUAUUCAGGUGCUGCAGAUCGGAAGAGCACACGU
B24: target 3 insU 3' of 6,insA 3' of 6 (mixed)
RNA 1: CACCCGUGCAAAAUUGCAGGGGUCUAAAACGACCUGAAUAUUUCAGAUCAAA
RNA 2: GGGAAUGGAUCCACAUCUACGAAUUCGUUUUUGAUCUGAAAUAUUCUAAGGUCUGCAGAUCGGAAGAGCACACGU
B25: target 1 insA 3' of 5,insC 3' of 1 (mixed)
RNA 1: CACCCGUGCAAAAAUGCAGGGGUCUAAAACUGAGCGGAUAACCUCUCUAUGG
RNA 2: GGGAAUGGAUCCACAUCUACGAAUUCGUACCAUAGAGAGGUUAUCCGACUCACCCGAGAUCGGAAGAGCACACGU
B26: target 1 insG 3' of 21,insU 3' of 1 (mixed)
RNA 1: CACCCGUGCAAAAAUGCAGGGGUCUAAAACUGAGCGGAUAACCUCUCUAUGG
RNA 2: GGGAAUGGAUCCACAUCUACGAAUUCGUACCGAUAGAGAGGUUAUCCGCUCAUCCGAGAUCGGAAGAGCACACGU
B27: target 1 G5U,U10C (mixed)
RNA 1: CACCCGUGCAAAAAUGCAGGGGUCUAAAACUGAGCGGAUAACCUCUCUAUGG
RNA 2: GGGAAUGGAUCCACAUCUACGAAUUCGUACCAUAGAGAGGUCAUCCUCUCACCGAGAUCGGAAGAGCACACGU

The data set concerns the target T1, EsCas13d, nuclease-dead (Eubacterium siraeum, UniProt B0MS50, R295A;H300A;R849A;H854A).
T1 sequence: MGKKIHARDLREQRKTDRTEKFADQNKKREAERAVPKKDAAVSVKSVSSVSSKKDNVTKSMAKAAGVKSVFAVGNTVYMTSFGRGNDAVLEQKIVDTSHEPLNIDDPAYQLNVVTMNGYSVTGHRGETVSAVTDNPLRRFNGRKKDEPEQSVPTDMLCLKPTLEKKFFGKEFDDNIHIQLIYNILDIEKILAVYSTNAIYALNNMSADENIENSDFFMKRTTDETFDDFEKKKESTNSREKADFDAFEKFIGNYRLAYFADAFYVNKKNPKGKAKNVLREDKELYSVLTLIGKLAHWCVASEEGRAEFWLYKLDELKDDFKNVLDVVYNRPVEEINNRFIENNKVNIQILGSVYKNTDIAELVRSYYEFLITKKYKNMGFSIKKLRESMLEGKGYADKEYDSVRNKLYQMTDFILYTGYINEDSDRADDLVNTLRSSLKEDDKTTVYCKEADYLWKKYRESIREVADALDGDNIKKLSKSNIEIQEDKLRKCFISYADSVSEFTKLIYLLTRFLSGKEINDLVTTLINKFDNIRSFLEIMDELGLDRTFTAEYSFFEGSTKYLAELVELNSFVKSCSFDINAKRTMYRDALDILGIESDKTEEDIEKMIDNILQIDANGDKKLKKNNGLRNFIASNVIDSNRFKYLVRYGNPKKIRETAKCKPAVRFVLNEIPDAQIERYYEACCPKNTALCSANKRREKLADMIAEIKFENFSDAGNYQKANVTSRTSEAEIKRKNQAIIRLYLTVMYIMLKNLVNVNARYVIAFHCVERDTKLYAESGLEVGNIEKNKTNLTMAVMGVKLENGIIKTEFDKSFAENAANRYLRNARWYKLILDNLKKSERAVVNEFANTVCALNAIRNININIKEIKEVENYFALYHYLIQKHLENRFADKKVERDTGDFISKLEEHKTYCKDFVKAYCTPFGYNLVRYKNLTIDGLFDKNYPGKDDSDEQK
The data set can be described thus: crRNA (strand 1, pre-loaded); Mg2+; 40 mM Tris-HCl pH 7.5, 150 mM NaCl, 6 mM MgCl2, 1 mM DTT, 0.1% Tween-20, 0.2 mg/ml BSA; 25 C; 10 min per concentration, then washed. To be noted: tags: His6-TwinStrep-SUMO cleaved; N-terminal SNAP kept (SNAP-Surface 488); label: 3' end held by stalled T7 RNA polymerase.
B1: binding was put at a Kd of 45.2 ± 8.25 nM.
Then B2, with 76.5 ± 16 nM; and B3, with 23.9 ± 3.2 nM.
Then B4, with 65 ± 15 nM.
Molecule B5 came in with a Kd of 55 ± 13 nM.
Then B6, with 73 ± 22.5 nM; and B7, with 32 ± 6.1 nM; and B8, with 71.5 ± 21.5 nM.
Molecule B9 displayed a Kd of 74 ± 16 nM.
Then B10, with 73.5 ± 24 nM; and B11, with 47 ± 10.5 nM; and B12, with 46.5 ± 7 nM.
Then B13, with 86 ± 34.5 nM; and B14, with 88 ± 21.5 nM.
Then B15, with 11.1 ± 0.7 nM.
As for B16, the Kd came to 87 ± 14.5 nM.
B17 had a Kd of around 56 nM.
For the molecule B18, the Kd was 64 ± 10 nM.
For the molecule B19, the Kd is 73 ± 29.5 nM.
B20 registered a Kd of 83 ± 9.5 nM.
Then B21, with 42.3 ± 4.95 nM; and B22, with 49 ± 5 nM.
As for B23, the Kd was 32.2 ± 3.15 nM.
Then B24, with 8.69 ± 0.57 nM.
Then B25, with 8.4 ± 1.6 nM.
In the case of B26, binding was characterised by a dissociation constant (Kd) of 71 ± 12 nM.
Then B27, with 95 ± 19 nM.

As a reminder, the Kd is the equilibrium constant for the complex coming apart.
